Assay [1] concerns the target T1, Human ROBO2 KSR mutant overexpressed on HEK293 cells (human, UniProt Q9HCK4 22-1378).
T1 construct: R100K and K102R already in the entry
T1 sequence: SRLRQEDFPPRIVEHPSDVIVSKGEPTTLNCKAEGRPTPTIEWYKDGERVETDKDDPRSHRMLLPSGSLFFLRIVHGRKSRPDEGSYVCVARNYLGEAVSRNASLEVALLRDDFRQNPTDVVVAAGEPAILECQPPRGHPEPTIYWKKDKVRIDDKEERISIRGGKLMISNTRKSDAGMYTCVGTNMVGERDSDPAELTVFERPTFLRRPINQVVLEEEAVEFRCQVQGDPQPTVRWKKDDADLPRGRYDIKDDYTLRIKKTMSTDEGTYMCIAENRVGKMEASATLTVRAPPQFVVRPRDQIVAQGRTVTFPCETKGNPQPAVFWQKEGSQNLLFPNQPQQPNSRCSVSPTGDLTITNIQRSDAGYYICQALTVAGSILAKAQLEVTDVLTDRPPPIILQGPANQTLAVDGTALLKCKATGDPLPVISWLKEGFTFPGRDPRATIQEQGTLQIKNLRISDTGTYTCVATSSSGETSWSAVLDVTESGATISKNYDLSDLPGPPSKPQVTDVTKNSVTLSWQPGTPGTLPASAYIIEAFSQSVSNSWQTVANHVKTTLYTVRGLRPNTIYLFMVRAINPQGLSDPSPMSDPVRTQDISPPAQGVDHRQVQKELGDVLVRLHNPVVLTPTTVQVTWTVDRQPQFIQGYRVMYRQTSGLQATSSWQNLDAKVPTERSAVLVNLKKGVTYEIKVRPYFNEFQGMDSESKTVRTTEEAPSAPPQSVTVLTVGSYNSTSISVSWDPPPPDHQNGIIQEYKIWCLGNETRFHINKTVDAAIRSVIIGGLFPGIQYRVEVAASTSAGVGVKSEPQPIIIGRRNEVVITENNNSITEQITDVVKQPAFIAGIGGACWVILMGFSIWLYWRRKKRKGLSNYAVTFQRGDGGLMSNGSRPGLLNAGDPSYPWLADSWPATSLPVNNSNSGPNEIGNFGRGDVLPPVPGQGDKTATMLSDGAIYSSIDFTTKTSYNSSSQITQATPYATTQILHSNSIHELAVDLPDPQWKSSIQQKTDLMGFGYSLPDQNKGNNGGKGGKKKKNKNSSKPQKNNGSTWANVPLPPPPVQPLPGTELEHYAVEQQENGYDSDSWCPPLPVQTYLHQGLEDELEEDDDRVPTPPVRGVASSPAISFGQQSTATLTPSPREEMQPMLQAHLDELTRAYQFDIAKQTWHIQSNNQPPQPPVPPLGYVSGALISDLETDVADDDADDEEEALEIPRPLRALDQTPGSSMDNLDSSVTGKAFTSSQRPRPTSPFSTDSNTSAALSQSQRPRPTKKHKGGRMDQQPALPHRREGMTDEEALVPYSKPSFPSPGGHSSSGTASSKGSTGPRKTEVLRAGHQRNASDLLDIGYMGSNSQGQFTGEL
Briefly: mutagenesis study.

In another assay the target is T2, Human ROBO1 Ig1-Ig2 (human, UniProt Q9Y6N7 68-257).
T2 construct: recombinant protein; also called ROBO1 Ig1-2; Human ROBO1 Ig 1,2
T2 sequence: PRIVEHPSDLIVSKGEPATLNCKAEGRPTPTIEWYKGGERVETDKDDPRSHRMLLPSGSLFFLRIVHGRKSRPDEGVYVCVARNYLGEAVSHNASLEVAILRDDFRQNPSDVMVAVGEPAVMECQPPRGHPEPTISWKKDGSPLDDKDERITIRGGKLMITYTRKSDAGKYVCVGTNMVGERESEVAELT
Kind of assay: Octet Red BLI, Abcs35 captured on AHC sensors, ROBO proteins in solution. An excerpt:
(§1) Octet Red AHC (Anti-Human IgG FC) Sensors were loaded with Abcs35. The loaded sensors were then exposed to Human ROBO2 Ig1-2, Rat ROBO2 Ig 1-2, Human ROBO2 Ig1-2 with the RSK mutated to KSR as in ROBO1, or ROBO1 Ig1-2 then the sensors were moved to PBS only, lacking any ROBO1 or 2 proteins. The arrows indicate curves for each of the ROBO proteins tested.
(§2) Based upon the crystal structure described above, the following experiments were done to confirm the epitope specificity of 93H2 and/or affinity matured clones Abcs35. Using Octet Red, epitope specificity was confirmed biochemically. Abcs35, at 10 μg/ml, was captured on AHC sensors for 60 seconds. Recombinant human ROBO2 Ig1-Ig2, rat […], human ROBO2 containing the ROBO1 KSR sequence (ROBO2-KSR mutant), and human ROBO1 Ig1-Ig2, prepared at 100 nM, were used to interact with captured Abcs35. Association time was 100 seconds then dissociation was followed for 20 seconds. Abcs35 specifically bound human and rat ROBO2 but not human ROBO1 or the ROBO2-KSR mutant protein (FIG. 2).
(In general: Biolayer interferometry detects binding as a change in optical thickness at a sensor tip.)

Assay [2] addresses T3, Human ROBO2 Ig 1,2 KSR mutant (human, UniProt Q7TPD3 31-220 (mouse entry), limits assumed).
T3 construct: recombinant protein; also called ROBO2-KSR mutant protein; Human ROBO2 Ig1-2 with the RSK mutated to KSR
T3 chain: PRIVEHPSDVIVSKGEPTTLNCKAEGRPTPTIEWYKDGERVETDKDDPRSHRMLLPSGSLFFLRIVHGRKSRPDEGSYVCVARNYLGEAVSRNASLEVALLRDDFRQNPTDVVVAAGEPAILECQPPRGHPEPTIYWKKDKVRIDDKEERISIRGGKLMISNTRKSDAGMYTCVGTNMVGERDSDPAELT
Described as above.
Source text: as §1, §2

This note sets out measurements from patent publication US20200157212A1 (Pfizer, published 2020).

B1: 93H2 (antibody, human IgG1, kappa, V domains shown)
VH: EVQLVQSGAEVKKPGASVKVSCKASGYTFTGYYMHWVRQAPGQGLEWMGWINPNSGATNFPQKFQGRVTMTRDTSITTAYMDLSRLRSDDTAVYYCARESGDDAFDIWGQGTMVTVSS
VL: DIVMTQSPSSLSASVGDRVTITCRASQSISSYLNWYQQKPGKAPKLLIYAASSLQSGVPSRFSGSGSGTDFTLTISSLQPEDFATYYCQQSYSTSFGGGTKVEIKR
notes: also called parental 93H2; 93H2 mAb
In the case of B1, the binding result in assay [1] is “no binding”.

B2: Abcs35 (antibody, human IgG1, kappa)
heavy: EVQLVQSGAEVKKPGASVKVSCKASGYTFTGYYMHWVRQAPGQGLEWMGWINPKNGDTEFPQKFQGRVTMTRDTSITTAYMDLSRLRSDDTAVYYCARESGDDAFDIWGQGTMVTVSSASTKGPSVFPLAPSSKSTSGGTAALGCLVKDYFPEPVTVSWNSGALTSGVHTFPAVLQSSGLYSLSSVVTVPSSSLGTQTYICNVNHKPSNTKVDKKVEPKSCDKTHTCPPCPAPEAAGAPSVFLFPPKPKDTLMISRTPEVTCVVVDVSHEDPEVKFNWYVDGVEVHNAKTKPREEQYNSTYRVVSVLTVLHQDWLNGKEYKCKVSNKALPAPIEKTISKAKGQPREPQVYTLPPSREEMTKNQVSLTCLVKGFYPSDIAVEWESNGQPENNYKTTPPVLDSDGSFFLYSKLTVDKSRWQQGNVFSCSVMHEALHNHYTQKSLSLSPGK
light: DIVMTQSPSSLSASVGDRVTITCRASQSISSYLNWYQQKPGKAPKLLIYAASSLQSGVPSRFSGSGSGTDFTLTISSLQPEDFATYYCQQSVGLFFGGGTKVEIKRTVAAPSVFIFPPSDEQLKSGTASVVCLLNNFYPREAKVQWKVDNALQSGNSQESVTEQDSKDSTYSLSSTLTLSKADYEKHKVYACEVTHQGLSSPVTKSFNRGEC
notes: fully human IgG1; VH of Ab96 with VL of Ab123
Regarding B2, the binding result (in the assay with Human ROBO1 Ig1-Ig2; in assay [2]) was “no binding” in each case.
